Tests used:
crystal structure = target: the molecule itself; assay: crystal structure
SEC = target: the molecule itself; assay: SEC

Row | Protein | stoichiometry N (crystal structure) | stoichiometry N (SEC)
1 | yGsy2-R589A/R592A (enzyme, Saccharomyces cerevisiae) MSRDLQNHLLFETATEVANRVGGIYSVLKSKAPITVAQYKDHYHLIGPLNKATYQNEVDILDWKKPEAFSDEMRPVQHALQTMESRGVHFVYGRWLIEGAPKVILFDLDSVRGYSNEWKGDLWSLVGIPSPENDFETNDAILLGYTVAWFLGEVAHLDSQHAIVAHFHEWLAGVALPLCRKRRIDVVTIFTTHATLLGRYLCASGSFDFYNCLESVDVDHEAGRFGIYHRYCIERAAAHSADVFTTVSQITAFEAEHLLKRKPDGILPNGLNVIKFQAFHEFQNLHALKKEKINDFVRGHFHGCFDFDLDNTLYFFIAGRYEYKNKGADMFIEALARLNYRLKVSGSKKTVVAFIVMPAKNNSFTVEALKGQAEVRALENTVHEVTTSIGKRIFDHAIRYPHNGLTTELPTDLGELLKSSDKVMLKRRILALRRPEGQLPPIVTHNMVDDANDLILNKIRQVQLFNSPSDRVKMIFHPEFLNANNPILGLDYDEFVRGCHLGVFPSYYEPWGYTPAECTVMGVPSITTNVSGFGAYMEDLIETNQAKDYGIYIVDRRFKAPDESVEQLVDYMEEFVKKTRRQRINQRNATEALSDLLDWKRMGLEYVKARQLALRRGYPDQFRELVGEELNDSNMDALAGGKKLKVARPLSVPGSPRDLRSNSTVYMTPGDLGTLQEVNNADDYFSLGVNPAADDDDDGPYADDS | 4 | 
2 | yGsy2-R581C/R592C (enzyme, Saccharomyces cerevisiae) MSRDLQNHLLFETATEVANRVGGIYSVLKSKAPITVAQYKDHYHLIGPLNKATYQNEVDILDWKKPEAFSDEMRPVQHALQTMESRGVHFVYGRWLIEGAPKVILFDLDSVRGYSNEWKGDLWSLVGIPSPENDFETNDAILLGYTVAWFLGEVAHLDSQHAIVAHFHEWLAGVALPLCRKRRIDVVTIFTTHATLLGRYLCASGSFDFYNCLESVDVDHEAGRFGIYHRYCIERAAAHSADVFTTVSQITAFEAEHLLKRKPDGILPNGLNVIKFQAFHEFQNLHALKKEKINDFVRGHFHGCFDFDLDNTLYFFIAGRYEYKNKGADMFIEALARLNYRLKVSGSKKTVVAFIVMPAKNNSFTVEALKGQAEVRALENTVHEVTTSIGKRIFDHAIRYPHNGLTTELPTDLGELLKSSDKVMLKRRILALRRPEGQLPPIVTHNMVDDANDLILNKIRQVQLFNSPSDRVKMIFHPEFLNANNPILGLDYDEFVRGCHLGVFPSYYEPWGYTPAECTVMGVPSITTNVSGFGAYMEDLIETNQAKDYGIYIVDRRFKAPDESVEQLVDYMEEFVKKTRCQRINQRNRTECLSDLLDWKRMGLEYVKARQLALRRGYPDQFRELVGEELNDSNMDALAGGKKLKVARPLSVPGSPRDLRSNSTVYMTPGDLGTLQEVNNADDYFSLGVNPAADDDDDGPYADDS |  | 4
3 | yGsy2-R581A/R592A (enzyme, Saccharomyces cerevisiae) MSRDLQNHLLFETATEVANRVGGIYSVLKSKAPITVAQYKDHYHLIGPLNKATYQNEVDILDWKKPEAFSDEMRPVQHALQTMESRGVHFVYGRWLIEGAPKVILFDLDSVRGYSNEWKGDLWSLVGIPSPENDFETNDAILLGYTVAWFLGEVAHLDSQHAIVAHFHEWLAGVALPLCRKRRIDVVTIFTTHATLLGRYLCASGSFDFYNCLESVDVDHEAGRFGIYHRYCIERAAAHSADVFTTVSQITAFEAEHLLKRKPDGILPNGLNVIKFQAFHEFQNLHALKKEKINDFVRGHFHGCFDFDLDNTLYFFIAGRYEYKNKGADMFIEALARLNYRLKVSGSKKTVVAFIVMPAKNNSFTVEALKGQAEVRALENTVHEVTTSIGKRIFDHAIRYPHNGLTTELPTDLGELLKSSDKVMLKRRILALRRPEGQLPPIVTHNMVDDANDLILNKIRQVQLFNSPSDRVKMIFHPEFLNANNPILGLDYDEFVRGCHLGVFPSYYEPWGYTPAECTVMGVPSITTNVSGFGAYMEDLIETNQAKDYGIYIVDRRFKAPDESVEQLVDYMEEFVKKTRAQRINQRNRTEALSDLLDWKRMGLEYVKARQLALRRGYPDQFRELVGEELNDSNMDALAGGKKLKVARPLSVPGSPRDLRSNSTVYMTPGDLGTLQEVNNADDYFSLGVNPAADDDDDGPYADDS |  | 4

Reference: publication PMC5516924 (Biochemistry, 2016)
